# Assay results as given in IntAct's records for PubMed 24291004.
# B1: Glucocorticoid receptor (Homo sapiens), P04150 (parent)
# chain: MDSKESLTPGREENPSSVLAQERGDVMDFYKTLRGGATVKVSASSPSLAVASQSDSKQRRLLVDFPKGSVSNAQQPDLSKAVSLSMGLYMGETETKVMGNDLGFPQQGQISLSSGETDLKLLEESIANLNRSTSVPENPKSSASTAVSAAPTEKEFPKTHSDVSSEQQHLKGQTGTNGGNVKLYTTDQSTFDILQDLEFSSGSPGKETNESPWRSDLLIDENCLLSPLAGEDDSFLLEGNSNEDCKPLILPDTKPKIKDNGDLVLSSPSNVTLPQVKTEKEDFIELCTPGVIKQEKLGTVYCQASFPGANIIGNKMSAISVHGVSTSGGQMYHYDMNTASLSQQQDQKPIFNVIPPIPVGSENWNRCQGSGDDNLTSLGTLNFPGRTVFSNGYSSPSMRPDVSSPPSSSSTATTGPPPKLCLVCSDEASGCHYGVLTCGSCKVFFKRAVEGQHNYLCAGRNDCIIDKIRRKNCPACRYRKCLQAGMNLEARKTKKKIKGIQQATTGVSQETSENPGNKTIVPATLPQLTPTLVSLLEVIEPEVLYAGYDSSVPDSTWRIMTTLNMLGGRQVIAAVKWAKAIPGFRNLHLDDQMTLLQYSWMFLMAFALGWRSYRQSSANLLCFAPDLIINEQRMTLPCMYDQCKHMLYVSSELHRLQVSYEEYLCMKTLLLLSSVPKDGLKSQELFDEIRMTYIKELGKAIVKREGNSSQNWQRFYQLTKLLDSMHEVVENLLNYCFQTFLDKTMSIEFPEMLAEIITNQIPKYSNGNIKKLLFHQK
# Variants of: B1
# Details: with akt1_human AKT1, P31749
# akt1_human AKT1, P31749, sequence (P31749 whole entry): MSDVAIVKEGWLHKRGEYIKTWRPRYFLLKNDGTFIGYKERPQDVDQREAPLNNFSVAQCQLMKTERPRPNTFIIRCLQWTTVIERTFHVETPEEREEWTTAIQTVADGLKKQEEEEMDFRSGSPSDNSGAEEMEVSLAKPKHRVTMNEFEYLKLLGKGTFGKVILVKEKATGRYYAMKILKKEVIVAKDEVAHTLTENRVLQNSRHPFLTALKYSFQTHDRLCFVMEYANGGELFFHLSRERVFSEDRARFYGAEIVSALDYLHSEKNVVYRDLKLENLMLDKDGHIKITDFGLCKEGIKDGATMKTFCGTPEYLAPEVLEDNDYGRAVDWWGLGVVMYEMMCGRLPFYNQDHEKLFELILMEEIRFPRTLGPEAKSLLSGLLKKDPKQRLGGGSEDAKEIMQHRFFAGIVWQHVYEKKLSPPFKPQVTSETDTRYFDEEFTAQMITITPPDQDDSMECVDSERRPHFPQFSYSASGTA
row,effect of a mutation on the interaction,Variant
1,disrupting interaction,S134A
